Results reported in the supplement of paper PMC7877785.
± gives the uncertainty stated by the source.

Assay: self-splicing fitness, log relative to wild type (ln ratio); higher = more splicing; Tetrahymena group I intron in knt gene, E. coli kanamycin selection, DiMSum; sequences stand for … in CUCUCU…GGAGGGAAAAGUUAUCAGGCAUGCACCUGGUAGCUAGUCUUUAAACCAAUAGAUUGCAUCGGUUUAAAAGGCAAGACCGUCAAAUUGCGGGAAAGGGGUCAACAGCCGUUCAGUACCAAGUCUCAGGGGAAACUUUGAGAUGGCCUUGCAAAGGGUAUGGUAAUAAGCUGACGGACAUGGUCCUAACCACGCAGCCAAGUCCUAAGUCAACAGAUCUUCUGUUGAUAUGGAUGCAGUUCACAGACUAAAUGUCGGUCGGGGAAGAUGUAUUCUUCUCAUAAGAUAUAGUCGGACCUCUCCUUAAUGGGAGCUAGCGGAUGAAGUGAUGCAACACUGGAGCCGCUGGGAACUAAUUUGUAUGCGAAAGUAUAUUGAUUAGUUUUGGAGUACUCGUGGUCG
Procedure, shortened: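 Library with all eight P1ex-region intron nucleotides randomised, intron inside the knt kanamycin-resistance gene on pET-22b(+), in E. coli BL21(DE3). Cells grew overnight at 37°C or 30°C on LB agar with or without 25 μg/mL kanamycin (plus 100 μg/mL carbenicillin, 50 μM IPTG, 0.2% rhamnose), in six replicate transformations. Pooled colonies were amplicon-sequenced on Illumina HiSeq 2500. DiMSum fitness is the error-weighted combination of wild-type-normalised replicate fold changes, kanamycin versus none.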

Row | Sequence | self-splicing fitness (ln) (30 °C) | self-splicing fitness (ln) (37 °C)
1 | AUAAAGCAAUAUUACGAUGU | -0.252 ± 0.072 | 0.28 ± 0.099
2 | ACAGAGCAAUAUUACGAGUC | -4.65 ± 0.38 | -1.82 ± 0.27
3 | AAGCAGCAAUAUUACGCAGC | -2.55 ± 0.16 | -3.41 ± 0.39
4 | AAGUAGCAAUAUUACGUGAU | -2.24 ± 0.098 | -1.77 ± 0.12
5 | AGUGAGCAAUAUUACGCAAU | -2.23 ± 0.4 | -0.698 ± 0.43
6 | CUAGAGCAAUAUUACGUACC | -4.52 ± 0.24 | -3.09 ± 0.35
7 | UCAUAGCAAUAUUACGGCCG | -0.395 ± 0.15 | 0.157 ± 0.16
8 | AGUCAGCAAUAUUACGCAUC | -1.32 ± 0.1 | -0.329 ± 0.12
9 | GUUUAGCAAUAUUACGAGAC | -3.35 ± 0.49 | -2.08 ± 0.32
10 | CUGAAGCAAUAUUACGAGCG | 0.242 ± 0.072 | 0.0253 ± 0.1
11 | CAUUAGCAAUAUUACGGUUU | -3.82 ± 0.2 | -2.68 ± 0.2
12 | CGUAAGCAAUAUUACGCCCG | -1.93 ± 0.18 | -0.621 ± 0.23
13 | CGCAAGCAAUAUUACGAGCC | -1.07 ± 0.095 | -0.349 ± 0.12
14 | UCGCAGCAAUAUUACGUCUG | – | -1.97 ± 0.18
15 | CGACAGCAAUAUUACGUAUC | – | -1.59 ± 0.19
16 | CCUGAGCAAUAUUACGACAG | -1.3 ± 0.14 | -0.663 ± 0.15
17 | UAUGAGCAAUAUUACGGCUC | – | -0.823 ± 0.41
18 | CAGGAGCAAUAUUACGAAGG | -1.43 ± 0.13 | -0.955 ± 0.18
19 | CAAAAGCAAUAUUACGUUAA | -2.65 ± 0.16 | -2.06 ± 0.12
20 | UGGAAGCAAUAUUACGCAGC | -2.22 ± 0.42 | -2.6 ± 0.26
21 | GACUAGCAAUAUUACGGCAC | -0.648 ± 0.14 | 0.581 ± 0.16
22 | GACAAGCAAUAUUACGCAGU | -3.47 ± 0.35 | -1.85 ± 0.22
23 | ACGUAGCAAUAUUACGAGCU | -1.36 ± 0.12 | -1.06 ± 0.14
24 | UGUCAGCAAUAUUACGGGUA | -0.294 ± 0.093 | 0.208 ± 0.11
25 | AGAUAGCAAUAUUACGUAGU | -2.61 ± 0.11 | -2.46 ± 0.15

Row | Sequence | self-splicing fitness (ln) (30 °C) | self-splicing fitness (ln) (37 °C)
26 | GAUAAGCAAUAUUACGCCUG | -0.902 ± 0.09 | 0.488 ± 0.13
27 | CUAGAGCAAUAUUACGCCUA | -2.2 ± 0.14 | -1.15 ± 0.12
28 | ACUCAGCAAUAUUACGGUUU | -0.62 ± 0.048 | -0.291 ± 0.057
29 | AAACAGCAAUAUUACGCGAG | -1.6 ± 0.076 | -1.12 ± 0.096
30 | UGUUAGCAAUAUUACGCAGU | -3.62 ± 0.27 | -2.48 ± 0.27
31 | CUUAAGCAAUAUUACGAAAG | -2.9 ± 0.22 | -1.75 ± 0.18
32 | GACCAGCAAUAUUACGGCAG | -3.74 ± 0.3 | -3.28 ± 0.25
33 | GUCCAGCAAUAUUACGUCAU | -0.201 ± 0.077 | 0.269 ± 0.081
34 | CUAGAGCAAUAUUACGCGCC | -2.12 ± 0.38 | –
35 | AGCCAGCAAUAUUACGUCGG | -3.89 ± 0.3 | -2.97 ± 0.32
36 | UGCCAGCAAUAUUACGCGCG | -0.853 ± 0.083 | -0.528 ± 0.1
37 | UUUGAGCAAUAUUACGUUAU | -3.92 ± 0.21 | -1.9 ± 0.16
38 | AGCGAGCAAUAUUACGAACG | -2.14 ± 0.29 | -1.5 ± 0.2
39 | CGGAAGCAAUAUUACGUUAC | – | -2.57 ± 0.2
40 | GAAAAGCAAUAUUACGGCAG | -3.02 ± 0.25 | -1.96 ± 0.23
41 | CCCGAGCAAUAUUACGGUUG | -3.65 ± 0.15 | -1.81 ± 0.11
42 | GAGAAGCAAUAUUACGACUU | -1.9 ± 0.14 | -1.14 ± 0.14
43 | CUGGAGCAAUAUUACGACAA | -2.11 ± 0.2 | -1.7 ± 0.2
44 | GUCAAGCAAUAUUACGUUAU | -2.02 ± 0.088 | -1.15 ± 0.09
45 | UACAAGCAAUAUUACGCCGG | -1.53 ± 0.11 | -0.146 ± 0.18
46 | UUGAAGCAAUAUUACGGUGA | -0.275 ± 0.08 | -0.469 ± 0.09
47 | UACAAGCAAUAUUACGAUGA | -0.422 ± 0.072 | -0.314 ± 0.085
48 | UACAAGCAAUAUUACGUAAA | -2.45 ± 0.073 | -1.38 ± 0.087
49 | UUCGAGCAAUAUUACGAGUA | -1.57 ± 0.15 | -1.43 ± 0.18
